Sequences and labels used below:
B1: Calypso^43–404 (wild type), as in the Calypso^43–404–ASX^207–340 complex [Drosophila melanogaster] / itself (parent)
chain: ADGWLELESDPGLFTLLLKDFGCHDVQVEEVYDLQKPIESPYGFIFLFRWIEERRARRKIVETTAEIFVKDEEAISSIFFAQQVVPNSCATHALLSVLLNCNENNLQLGDTLSRLKTHTKGMSPENKGLAIGNTPELACAHNSHAMPQARRRLERTGAGVSSCRFTGEAFHFVSFVPINGQLFELDGLKPYPMNHGGWEDSEDWTDKFRRVMAERLGIATGEQDIRFNLMAVVPDRRIAITHKLKMLRTNQAIVSGTLQKLLKADEQGESGNGDSQRPDTPTTLLEPSAFTARDLQSLLKNLDTEIAINEQHLADENDRRHMFKVDASRRTHNYDKFICTFLSMLAHQGVLGELVSQHLLPS

The test covers variants of B1. The test can be described thus: SEC-MALLS (Calypso–Calypso dimerisation within the Calypso–ASX complex). The following applies: with itself; 50 μM; 20 mM HEPES pH 7.5 and 100 mM NaCl; read off a plot.
ADGWLELESDPGLFTLLLKDFGCHDVQVEEVYDLQKPIESPYGFIFLFRWIEERRARRKIVETTAEIFVKDEEAISSIFFAQQVVPNSCATHALLSVLLNCNENNLQLGDTLSRLKTHTKGMSPENKGLAIGNTPELACAHNSHAMPQARRRLERTGAGVSSCRFTGEAFHFVSFVPINGQLFELDGLKPYPMNHGGWEDSEDWTDKFRRVMAERLGIATGEQDIRFNLMAVVPDRRIAITHKLKRLRTNQAIVSGTLQKLLKADEQGESGNGDSQRPDTPTTLLEPSAFTARDLQSLLKNLDTEIAINEQHLADENDRRHMFKVDASRRTHNYDKFICTFLSMLAHQGVLGELVSQHLLPS [chain 1 M246R]: the screen value was 77 kDa.
